Assay results: US20240400651A1

Target: Spike proteins of the wild-type Wuhan-Hu-1 strain and the D614G, B.1.1.7, B.1.351, P.1, B.1.526 and
Experiment: cell-based or functional assay

B1: Mab #25 (antibody, V domains shown)
VH: EVQLVESGAEVKKPGESLKISCKGSGYTFTRYWIGWVRQMPGKGLEWMGIIYPGDSDTRYSPSFQGHVTISADKSISTAYLQWNSLKASDTAMYYCARLPQYCSNGVCQRWFDPWGQGTLVTVSS
VL: EIVLTQSPSSVSASVGDRVTITCRASQGISSWLAWYQQKPGKAPKLLIYAASSLQSGVPSRFSGSGSGTDFTLTISSLQPEDFATYYCQQGNSFPYTFGQGTNLEIK
Q: B1 was tested. Which IC50, infectivity assays using pseudoviruses did it give?
A: 0.05 to 0.2 µg/mL
